Experimental data: patent US20030195337A1 (IMMUNEX, published 2003)

B1: ULBP3, full length, expressed on transfected CV-1 cells (ligand)
chain: DAHSLWYNFTIIHLPRHGQQWCEVQSQVDQKNFLSYDCGSDKVLSMGHLEEQLYATDAWGKQLEMLREVGQRLRLELADTELEDFTPSGPLTLQVRMSCECEADGYIRGSWQFSFDGRKFLLFDSNNRKWTVVHAGARRMKEKWEKDSGLTTFFKMVSMRDCKSWLRDFLMHRKKRLEPTAPPTMAPG
notes: Full length cDNA in pDC409, expressed on CV-1 cells
B2: ULBP4, full length, expressed on transfected CV-1 cells (ligand)
chain: HSLCFNFTIKSLSRPGQPWCEAQVFLNKNLFLQYNSDNNMVKPLGLLGKKVYATSTWGELTQTLGEVGRDLRMLLCDIKPQIKTSDPSTLQVEMFCQREAERCTGASWQFATNGEKSLLFDAMNMTWTVINHEASKIKETWKKDRGLEKYFRKLSKGDCDHWLREFLGHWEAMPEPTVSPVNASDIHWSSSSLPDRWIILGAFILLVLMGIVLICVWWQNGEWQAGLWPLRTS
notes: Full length cDNA in pDC409, expressed on CV-1 cells; The terminus was not determined for the cell-surface form itself
B3: murine NKG2D-Fc fusion protein (Fc fusion, UniProt O54709 90-232, looked up)
chain: FKETFQPVLCNKEVPVSSREGYCGPCPNNWICHRNNCYQFFNEEKTWNQSQASCLSQNSSLLKIYSKEEQDFLKLVKSYHWMGLVQIPANGSWQWEDGSSLSYNQLTLVEIPKGSCAVYGSSFKAYTEDCANLNTYICMKRAV
notes: extracellular domain; Soluble protein made in CV-1 cells; not shown: hinge and Fc region of a modified human IgG1 (Fc mutein of Baum et al. 1994)

Experiments:
[1] = target: human NK cells (primary, stimulated overnight with recombinant human IL-15) (human); experiment: flow cytometry; 1 ug protein on about one million IL-15 stimulated human NK cells, labeled anti-human IgG Fc; no protein control = 6
[2] = target: ULBP2, full length, expressed on transfected CV-1 cells (human) (UniProt Q9BZM5); experiment: flow cytometry; Fc fusion protein on CV-1 cells transfected with full length ULBP; +++ = more than two logs above background
Sequence of ULBP2, full length, expressed on transfected CV-1 cells (human) (Q9BZM5 26-217 limits assumed): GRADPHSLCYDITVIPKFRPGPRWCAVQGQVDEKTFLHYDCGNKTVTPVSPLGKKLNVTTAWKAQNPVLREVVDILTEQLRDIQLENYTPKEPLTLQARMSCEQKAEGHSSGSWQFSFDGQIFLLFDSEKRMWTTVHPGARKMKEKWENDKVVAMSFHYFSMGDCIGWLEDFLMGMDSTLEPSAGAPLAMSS

[3] = target: ULBP3, full length, expressed on transfected CV-1 cells (human) (UniProt Q9BZM4); experiment: as above
[4] = target: ULBP4, full length, expressed on transfected CV-1 cells (human) (UniProt Q8TD07); experiment: as above
[5] = target: ULBP1, full length, expressed on transfected CV-1 cells (human) (UniProt Q9BZM6); experiment: as above
UL16-Fc fusion protein = target: T1, UL16-Fc fusion protein (human cytomegalovirus (HCMV); human, UniProt P16757 27-184; P01857 99-330 = IgG part); experiment: flow cytometry; Fc fusion protein on CV-1 cells transfected with full length ULBP, PE anti-human IgG Fc
T1 construct: extracellular domain;domain: modified human IgG1 Fc region; Soluble fusion protein prepared as in Cosman et al. 2001
T1 sequence (P16757 27-184, tags or fused parts left off): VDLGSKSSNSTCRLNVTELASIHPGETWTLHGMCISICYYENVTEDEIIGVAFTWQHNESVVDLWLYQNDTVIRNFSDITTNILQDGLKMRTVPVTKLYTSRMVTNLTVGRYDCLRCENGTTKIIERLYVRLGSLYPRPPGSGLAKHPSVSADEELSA

[6] = target: B1; experiment: as above

## ULBP1:Fc fusion protein (from UniProt Q9BZM6 26-216)
[1]
  Mean fluorescence intensity: 35

## human NKG2D-Fc fusion protein (from UniProt P26718 73-216; P01857 99-330)
[2]
  fluorescence above background (flow cytometry) (logabovebackground): > 2
[3]
  fluorescence above background (flow cytometry) (logabovebackground): > 2
[4]
  fluorescence above background (flow cytometry) (logabovebackground): > 2
[5]
  fluorescence above background (flow cytometry) (logabovebackground): > 2

## B1
UL16-Fc fusion protein
  binding result: no binding

## B2
UL16-Fc fusion protein
  binding result: no binding

## B3
[6]
  binding result: no binding
